Assays:
[1] = biological target: CRT3LP (PASylated CRT-targeted L-ASNase: CRT3 monobody - L-ASNase - PAS200 tag - His6) (E. coli)
[2] = biological target: CRT4LP (PASylated CRT-targeted L-ASNase: CRT4 monobody - L-ASNase - PAS200 tag - His6) (E. coli)

B1: recombinant calreticulin protein (rCRT) (other)
chain: EPAVYFKEQFLDGDGWTSRWIESKHKSDFGKFVLSSGKFYGDEEKDKGLQTSQDARFYALSASFEPFSNKGQTLVVQFTVKHEQNIDCGGGYVKLFPNSLDQTDMHGDSEYNIMFGPDICGPGTKKVHVIFNYKGKNVLINKDIRCKDDEFTHLYTLIVRPDNTYEVKIDNSQVESGSLEDDWDFLPPKKIKDPDASKPEDWDERAKIDDPTDSKPEDWDKPEHIPDPDAKKPEDWDEEMDGEWEPPVIQNPEYKGEWKPRQIDNPDYKGTWIHPEIDNPEYSPDPSIYAYDNFGVLGLDLWQVKSGTIFDNFLITNDEAYAEEFGNETWGVTKAAEKQMKDKQDEEQRLKEEEEDKKRKEEEEAEDKEDDEDKDEDEEDEEDKEEDEEEDVPGQAKDEL
[1]
  Kd: 2.07 nM
[2]
  Kd: 2.3 nM

From patent US20250376507A1 (INDUSTRY FOUNDATION OF CHONNAM NATIONAL UNIVERSITY, published 2025)
